# Results: patent publication US20060148705A1 (Regeneron, published 2006)
# B1: recombinant monomeric R1R2-myc myc his (receptor, not shown: small tags and cut ends)
# chain: GRPFVEMYSEIPEIIHMTEGRELVIPCRVTSPNITVTLKKFPLDTLIPDGKRIIWDSRKGFIISNATYKEIGLLTCEATVNGHLYKTNYLTHRQTNTIIDVVLSPSHGIELSVGEKLVLNCTARTELNVGIDFNWEYPSSKHQHKKLVNRDLKTQSGSEMKKFLSTLTIDGVTRSDQGLYTCAASSGLMTKKNSTFVRVHEK
# modifications: Monomer with a C-terminal myc-myc-His tag that is not given in letters and is left out.
# notes: Monomer; also called R1R2-myc myc his monomer
# B2: fusion protein R1R2R1R2 (SEQ ID NO:24), single chain VEGF mini-trap (receptor)
# chain: SDTGRPFVEMYSEIPEIIHMTEGRELVIPCRVTSPNITVTLKKFPLDTLIPDGKRIIWDSRKGFIISNATYKEIGLLTCEATVNGHLYKTNYLTHRQTNTIIDVVLSPSHGIELSVGEKLVLNCTARTELNVGIDFNWEYPSSKHQHKKLVNRDLKTQSGSEMKKFLSTLTIDGVTRSDQGLYTCAASSGLMTKKNSTFVRVHEKGPGRPFVEMYSEIPEIIHMTEGRELVIPCRVTSPNITVTLKKFPLDTLIPDGKRIIWDSRKGFIISNATYKEIGLLTCEATVNGHLYKTNYLTHRQTNTIIDVVLSPSHGIELSVGEKLVLNCTARTELNVGIDFNWEYPSSKHQHKKLVNRDLKTQSGSEMKKFLSTLTIDGVTRSDQGLYTCAASSGLMTKKNSTFVRVHEK
# notes: Monomer, secreted from CHO K1 cells; also called R1R2-R1R2 VEGF mini-trap; (R1R2)2
# What was measured:
# human VEGF165 [1] = target: T1, human VEGF165 (human, UniProt P15692-4 27-191); assay: half-life of dissociation from hVEGF165, as described in WO/0075319
# T1 construct: also called hVEGF165
# T1 sequence (P15692 other isoform, or with tags, fused parts or gaps limits assumed): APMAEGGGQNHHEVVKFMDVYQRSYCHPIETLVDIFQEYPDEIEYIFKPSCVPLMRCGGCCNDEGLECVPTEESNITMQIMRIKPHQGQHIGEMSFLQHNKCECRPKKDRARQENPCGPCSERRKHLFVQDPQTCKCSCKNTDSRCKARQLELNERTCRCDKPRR
# human VEGF165 [2] = target: T1, human VEGF165; assay: kinetic dissociation rate from hVEGF165, as described in WO/0075319
# human VEGF165 [3] = target: T1, human VEGF165; assay: BIAcore 2000; t½ = 0.693/kd
# Protocol: (§1) Binding assays were carried out by first capturing around 100 RU of each fusion protein construct to the immobilized anti-VEGFR1 mAb, after which various concentrations (0-2 nM) of human VEGF165 were injected over the captured fusion protein surface at a flow rate of 100 μl/min for 2 minutes. The fusion protein constructs binding kinetic parameters including ka (1/Ms) (association rate constant), kd (1/s) (dissociation rate constant) and KD (dissociation equilibrium constant) were determined using the BIA evaluation 4.1 computer program (Biacore, Inc.), and t½ was determined using formula 0.693/kd (dissociation rate).
# human VEGF165 [4] = target: T1, human VEGF165; assay: BIAcore 2000; fusion protein captured on anti-VEGFR1 mAb, human VEGF165 (0-2 nM) injected
# Protocol: as §1
Binder,T1/2 (human VEGF165 [1]) [min],koff (human VEGF165 [2]) [s⁻¹],t½ (human VEGF165 [3]) [h],Kd (human VEGF165 [4]) [pM],koff (human VEGF165 [4]) [s⁻¹],kon (human VEGF165 [4]) [M⁻¹ s⁻¹]
B1,1.68,0.00674,,,,
B2,,,24.1,1.76,8e-06,4.54e+06
